Consider four proteins from article doi:10.1101/2021.08.16.456468, “Positive and negative control of helicase recruitment at a bacterial chromosome origin” (bioRxiv, 2021).

Residue numbers refer to the chain shown, from its start. Names and notes keep the numbering of the source.

Data set [1] deals with the molecule itself. As to the kind of experiment: SEC-MALS; purified DnaD variants, size exclusion chromatography followed by multiple angle light scattering.
Data set [2] deals with the molecule itself. As to the kind of experiment: cross-linking; amine-specific BS^3, SDS-PAGE, immunoblot. On the technique in general: A western blot detects proteins with antibodies after separation by electrophoresis.

B1: DnaD^1-205, purified (domain or fragment, B. subtilis, UniProt P39787 1-205, looked up)
chain: MKKQQFIDMQEQGTSTIPNLLLTHYKQLGLNETELILLLKIKMHLEKGSYFPTPNQLQEGMSISVEECTNRLRMFIQKGFLFIEECEDQNGIKFEKYSLQPLWGKLYEYIQLAQNQTQERKAEGEQKSLYTIFEEEFARPLSPLECETLAIWQDQDQHDAQLIKHALKEAVLSGKLSFRYIDRILFEWKKNGLKTVEQAKIHSQK
notes: also called DnaD variant lacking the C-terminal tail
Regarding B1, the “stoichiometry N” value in data set [1] amounted to 4.

B2: DnaD, wild type, purified (natural protein, B. subtilis, UniProt P39787 1-232, looked up)
chain: MKKQQFIDMQEQGTSTIPNLLLTHYKQLGLNETELILLLKIKMHLEKGSYFPTPNQLQEGMSISVEECTNRLRMFIQKGFLFIEECEDQNGIKFEKYSLQPLWGKLYEYIQLAQNQTQERKAEGEQKSLYTIFEEEFARPLSPLECETLAIWQDQDQHDAQLIKHALKEAVLSGKLSFRYIDRILFEWKKNGLKTVEQAKIHSQKFRRVQAKQNEPQKEYKRQVPFYNWLEQ
notes: DnaD, Bacillus subtilis, the full-length protein; tetramer of about 113 kDa by SEC-MALS (theoretical 110 kDa); also called wild-type DnaD; wild-type tetrameric DnaD
With B2, in data set [1], the “stoichiometry N” value is 4.

B3: DnaD^F6A, purified (natural protein, B. subtilis, UniProt P39787 1-232, looked up)
chain: B2 chain with F6A
notes: DnaD, Bacillus subtilis, with F6A; eluted as a 57 kDa species (dimer); The measured mass fits the whole protein
As to B3, the “stoichiometry N” value in data set [1] is 2.

B4: DnaD^K3A (natural protein, B. subtilis, UniProt P39787 1-232, looked up)
chain: B2 chain with K3A
notes: DnaD, Bacillus subtilis, with K3A, used in BS^3 cross-linking
As to B4, the “stoichiometry N” value in data set [2] was 2.

One may read the stoichiometry N as a count of units in the complex or per binding partner.
